# US20200270588A1, “GLUCOSYL TRANSFERASE POLYPEPTIDES AND METHODS OF USE” (Syngenta Participations AG, priority 2017, published 2020)
# Where a chain is given by its changes, count along the chain named. Names may count otherwise.
# B1: M135V: bx9 SEQ ID NO:1 mutant (protein)
# chain: MASSRTGAGAGGRVVVFPFPFQGHFNPVMRLARALHARGLAITVFHSGALDPADYPADYRFVPVTVEADPKLLASEDIAAIVTTLNASCDAPFRARLSALLAAEGRDSVRCVFTDVSWNAVLTASSDLGVPALGVMTASAASLRDYMAYRTLIDKGYLPVKEERKEDPVPELPPYLVKDLLRVDTSDLEEFAELLARTVTAARRASGLIFNTFPLIETDTLAEIHKALSVPVFAVAPLNKLVPTATASLHGVVQADRGCLQWLDTQQPGSVLYVSFGSMAAMDPHEFVELAWGLADSKRPFVWVVRPNLIRGFESGALPDGVEDEVRGRGIVVAWAPQEEVLAHPAVGGFLTHNGWNSTVEAISEGVPMVCCPRHGDQFGNMRYVCDVWKVGTELVGEQLERGQVKAAIDRLFGTKEGEEIKERMKEFKIAAAKGIGIGVDVDETASPRTDLTDLVDLIKSF
# modifications: Zea mays
# B2: A334T: bx9 SEQ ID NO:1 mutant (protein)
# chain: B1 chain with V135M, A334T
# modifications: Zea mays
# B3: A334C: bx9 SEQ ID NO:1 mutant (protein)
# chain: B1 chain with V135M, A334C
# modifications: Zea mays
# B4: A432P, M279F: double mutant of bx9 SEQ ID NO:1 (protein)
# chain: B1 chain with V135M, M279F, A432P
# modifications: Zea mays
# B5: A334E: bx9 SEQ ID NO:1 mutant (protein)
# chain: B1 chain with V135M, A334E
# modifications: Zea mays
# B6: M279W: bx9 SEQ ID NO:1 mutant (protein)
# chain: B1 chain with V135M, M279W
# modifications: Zea mays
# B7: I81L (protein)
# chain: B1 chain with I81L, V135M
# modifications: Zea mays
# B8: I81Y (protein)
# chain: B1 chain with I81Y, V135M
# modifications: Zea mays
# B9: I78Y: bx9 SEQ ID NO:1 mutant (protein)
# chain: B1 chain with I78Y, V135M
# modifications: Zea mays
# Experiment: UDP luminescence plate assay of E. coli extracts, mutants of SEQ ID No: 1, 2 mM metribuzin
# Type: biochemical, Zea mays
# Conditions: 2 mM metribuzin
# Method: Optionally plate assays are stopped with brief heating to 95 C before returning to ice and addition of UDP-Glo detection reagent followed by incubation at lab temperature. […] In addition a UDP standard curve is run alongside each set of plate tests.
# Assays were carried out on extracts of E. coli BL21 DE3 expressing the various C-terminally his-tagged library variants of SEQ ID NO:1 at the amino acid positions listed in Table 11 as described in Example 2 except, in this case, with 2 mM metribuzin in place of herbicide V.
# Thus the ratio of the metribuzin to DMSO signal as well as the increase in signal relative to the w/t bx9 is used to help distinguish those mutations most likely to offer the highest activity to metribuzin. A follow up assay monitored by, for example, LC MS is one method to distinguish these cases more quantitatively.
Molecule,RATIO: metribuzin signal to DMSO signal,SIGNAL: metribuzin signal of mutant divided by metribuzin signal of w/t bx9
B1,0.97,1.18
B2,0.95,1.25
B3,0.94,1.13
B4,–,1.68
B5,0.96,1.25
B6,–,1.14

# Same assay, conditions: 2 mM metribuzin vs DMSO control, same mutant
row,Molecule,RATIO of the metribuzin signal to the DMSO signal
1,B7,1.11
2,B8,1.12

# Same assay, conditions: 2 mM metribuzin; H24A null background 1.00E+05 not subtracted
row,Molecule,luminescence signal with metribuzin
1,B1,1.46E+05
2,B2,1.54E+05
3,B3,1.39E+05
4,B4,2.08E+05
5,B5,1.54E+05
6,B6,1.41E+05

# Same assay, conditions: 2 mM metribuzin; relative to bx9 w/t
row,Molecule,SIGNAL: metribuzin signal of mutant divided by the signal of w/t bx9
1,B7,0.67
2,B4,2.52
3,B8,0.90
4,B9,1.23
5,B6,1.26

# Same assay, conditions: mutants of SEQ ID No: 1; DMSO in place of metribuzin (background UDP-glucose hydrolysis)
row,Molecule,luminescence signal in the DMSO control
1,B7,1.68E+05
2,B4,2.75E+05
3,B8,2.25E+05
4,B9,3.27E+05
5,B6,2.09E+05

# Same assay, conditions: mutants of SEQ ID No: 1 in E. coli extracts; 2 mM metribuzin; UDP luminescence
row,Molecule,luminescence signal observed with 2 mM metribuzin
1,B7,1.87E+05
2,B4,7.06E+05
3,B8,2.53E+05
4,B9,3.44E+05
5,B6,3.51E+05
